Laboratory results as given in patent publication US20110171231A1 (published 2011).

T1: recombinant mouse PlGF-2 (mouse, UniProt P49764 24-158, limits assumed)
T1 sequence (looked up): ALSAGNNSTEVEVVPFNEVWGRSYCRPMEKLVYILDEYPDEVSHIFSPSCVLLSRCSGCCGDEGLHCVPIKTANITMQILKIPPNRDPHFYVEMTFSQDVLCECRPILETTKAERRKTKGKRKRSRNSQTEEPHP

T2: human PlGF-2 (human, UniProt P49763-3 19-170)
T2 construct: Panning used human PlGF residues 19-116 and human PlGF-1; also called hPlGF-2; hPlGF
T2 sequence (looked up): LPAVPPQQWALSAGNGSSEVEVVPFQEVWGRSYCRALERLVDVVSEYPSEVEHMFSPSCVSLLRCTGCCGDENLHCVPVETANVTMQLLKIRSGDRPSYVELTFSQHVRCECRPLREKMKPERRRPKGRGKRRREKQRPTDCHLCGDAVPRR


Key:
recombinant mouse PlGF-2 [1] = target: T1, recombinant mouse PlGF-2; assay: competition ELISA on mPlGF-coated plate; blocked ligand: biotinylated NRP-2
Procedure: The ability of the anti-PlGF Mabs C9.V2 and 7A10 to block the interaction between PlGF and its co-receptors NRP-1 and NRP-2 (Gluzman-Poltorak et al., 2000; Mamluk et al., 2002) was also tested. For PlGF/NRP1 and PlGF/NRP2 competition binding assays, Microtiter plates (Nunc, Rochester, N.Y., USA) were coated with recombinant mouse PlGF (BioVision, Mountain View, Calif., USA) either at 2 μg/mL (for PlGF/NRP1 binding) or at 4 ug/mL (for PlGF/NRP2 binding) in PBS. After an overnight incubation at 4° C., assay plates were washed with wash buffer (PBS/0.05% Tween 20) and treated with block buffer (PBS/0.5% BSA) for 1 to 2 hours. Samples were serially diluted in sample diluent (PBS/0.5% BSA/15 ppm Proclin/0.05% Tween 20/0.2% BGG/0.25% CHAPS/5 mM EDTA/0.3 M NaCl, pH7.4) containing 0.25 ug/mL of heparin (Sigma, St. Louis, Mo., US) and incubated in the presence of either 100 ng/mL of biotin-mouse
NRP1-Fc (0.66 nM for PlGF/NRP1 binding) or 425 ng/mL of biotin-NRP2-Fc (6 nM for PlGF/NRP2-binding). After incubation for 2 hours, assay plates were washed 6 times with wash buffer and then incubated for 45 to 60 minutes with AMDEX streptavidin-HRP (GE Healthcare, Pittsburgh, Pa., USA) diluted 10,000 folds in assay buffer (PBS/0.5% BSA/0.05% Tween 20, pH7.4). […] Absorbance was measured at 450 nm against a reference wavelength of 620 nm.

recombinant mouse PlGF-2 [2] = target: T1, recombinant mouse PlGF-2; assay: cell-based or functional assay
human PlGF-2 = target: T2, human PlGF-2; assay: Biacore, anti-mouse Fc chip
recombinant mouse PlGF-2 [3] = target: T1, recombinant mouse PlGF-2; assay: Biacore, anti-mouse Fc chip

Row | IC50 (read off the curve) (recombinant mouse PlGF-2 [1]) [nM] | calculated IC50 (PlGF-induced migration of 67NR-VEGFR-1 cells, FIG. 2) (recombinant mouse PlGF-2 [2]) [nM] | Kd (human PlGF-2) [nM] | Kd (recombinant mouse PlGF-2 [3]) [nM] | Molecule
1 | 4 |  |  |  | mFLT1(1-3)-IgG (from UniProt P35969) (Fc fusion)
2 | ~4 | 0.8 | 0.8 | 0.9 | anti-PlGF monoclonal antibody C9.V2 (antibody, mouse IgG2a, V domains shown, also called C9v2.9; anti-PlGF MAb C9v2) VH: EVQLVESGGGLVQPGGSLRLSCAASGFTFTNTWISWVRQAPGKGLEWVGSITPANGYTNYADSVKGRFTISADTSKNTAYLQMNSLRAEDTAVYYCARAVYPWFFAYWGQGTLVTVSS VL: DIQMTQSPSSLSASVGDRVTITCRASQYVSHAVAWYQQKPGKAPKLLIYSASFLYSGVPSRFSGSGSGTDFTLTISSLQPEDFATYYCQSAYTPPTTFGQGTKVEIK
